50 sequences from the supplement of paper PMC9112550, “Optimization of the antimicrobial peptide Bac7 by deep mutational scanning” (BMC Biology, 2022) can be followed below.

The test system of this data set is Escherichia coli TOP10. The data set is described as follows: shrunken log2 fold change of peptide-encoding DNA abundance (4.5 h post-induction vs induction); higher = less antimicrobial activity (less host growth inhibition). As to conditions: time post-induction: 4.5 h; library: site-saturation at positions 5, 18, 19, 20.
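Note: peptides expressed intracellularly from a pBAD plasmid library in pooled LB shake-flask culture, induced with 0.3% L-arabinose, DNA abundance read by NGS, three biological replicates, DESeq2 with apeglm shrinkage.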

For the sequence RRIRLRPPRLPRPRPRPIPCPRP, the “shrunken log2 fold change” value is -0.00241. RRIRLRPPRLPRPRPRPMPLPRP: the “shrunken log2 fold change” value was -0.043. In the case of RRIRCRPPRLPRPRPRPDTMPRP, the “shrunken log2 fold change” value is 0.00262. Next, RRIRARPPRLPRPRPRPAEWPRP: 0.245; RRIRMRPPRLPRPRPRPRNMPRP: 0.281. As for RRIRRRPPRLPRPRPRPGFTPRP, the “shrunken log2 fold change” value was 0.00987.

Take RRIRQRPPRLPRPRPRPKQVPRP: the “shrunken log2 fold change” value stood at 0.0304. Take RRIRPRPPRLPRPRPRPSTGPRP: the “shrunken log2 fold change” value was -0.263. With RRIRKRPPRLPRPRPRPWTYPRP, the “shrunken log2 fold change” value turned out to be 0.0938. To RRIRARPPRLPRPRPRPRHTPRP belongs 0.419. As for RRIRGRPPRLPRPRPRPNSKPRP, the “shrunken log2 fold change” value is 0.0993.

For RRIRGRPPRLPRPRPRPYFKPRP, the “shrunken log2 fold change” value was -0.366.

On to RRIRGRPPRLPRPRPRPVMYPRP, for which the “shrunken log2 fold change” value came out at 0.237. Next, RRIRMRPPRLPRPRPRPAMQPRP: 0.404. To RRIRWRPPRLPRPRPRPNRRPRP belongs 0.191. To RRIRFRPPRLPRPRPRPVPNPRP belongs -0.0743; to RRIRHRPPRLPRPRPRPCLQPRP, -0.148; to RRIRPRPPRLPRPRPRPARLPRP, 0.00523.

With RRIRNRPPRLPRPRPRPRMHPRP, the “shrunken log2 fold change” value was determined as 0.217. On to RRIRRRPPRLPRPRPRPIKWPRP, for which the “shrunken log2 fold change” value stood at 0.0148. For RRIRMRPPRLPRPRPRPMPIPRP, the “shrunken log2 fold change” value was 0.0625. As for RRIRGRPPRLPRPRPRPWDKPRP, the “shrunken log2 fold change” value amounted to 0.067. Next, RRIRARPPRLPRPRPRPEHHPRP: 0.132; RRIRFRPPRLPRPRPRPGFVPRP: 0.126; RRIRHRPPRLPRPRPRPCRDPRP: 0.0154. Consider RRIRHRPPRLPRPRPRPPYYPRP, for which the “shrunken log2 fold change” value was -0.296. To RRIRWRPPRLPRPRPRPRIKPRP belongs 0.0187.

As to RRIRARPPRLPRPRPRPEKEPRP, the “shrunken log2 fold change” value was determined as 0.248. Regarding RRIRQRPPRLPRPRPRPISLPRP, the “shrunken log2 fold change” value was -0.527. To RRIRQRPPRLPRPRPRPEGDPRP belongs 0.00223; to RRIRMRPPRLPRPRPRPPLYPRP, 0.445. To RRIRARPPRLPRPRPRPEDAPRP belongs 0.894. RRIRPRPPRLPRPRPRPHLCPRP: the “shrunken log2 fold change” value came to 0.0476.

As for RRIRQRPPRLPRPRPRPHYNPRP, the “shrunken log2 fold change” value is -1.22. RRIRRRPPRLPRPRPRPLFRPRP: the “shrunken log2 fold change” value amounted to 0.109. To RRIRWRPPRLPRPRPRPPSMPRP belongs 0.405. For the sequence RRIRNRPPRLPRPRPRPNYGPRP, the “shrunken log2 fold change” value was -0.0781. Take RRIRYRPPRLPRPRPRPRNWPRP: the “shrunken log2 fold change” value is -0.0364.

For the sequence RRIRMRPPRLPRPRPRPESVPRP, the “shrunken log2 fold change” value is 0.958. To RRIRNRPPRLPRPRPRPHDGPRP belongs -0.378; to RRIRDRPPRLPRPRPRPLVRPRP, 0.223; to RRIRFRPPRLPRPRPRPGHNPRP, -0.409. On to RRIRYRPPRLPRPRPRPCQMPRP, for which the “shrunken log2 fold change” value is -0.255.

For RRIRKRPPRLPRPRPRPTSYPRP, the “shrunken log2 fold change” value was -0.152.

Consider RRIRMRPPRLPRPRPRPWMVPRP, for which the “shrunken log2 fold change” value was -0.128.

On to RRIRGRPPRLPRPRPRPFQWPRP, for which the “shrunken log2 fold change” value is -0.0859. Regarding RRIRARPPRLPRPRPRPMHPPRP, the “shrunken log2 fold change” value turned out to be 0.362.

Take RRIRPRPPRLPRPRPRPRMKPRP: the “shrunken log2 fold change” value is -0.285. For the sequence RRIRWRPPRLPRPRPRPLNQPRP, the “shrunken log2 fold change” value is -0.0739. Take RRIRQRPPRLPRPRPRPHIFPRP: the “shrunken log2 fold change” value was 0.0297.
